The target in test [1] is T1, full-length sAPPalpha fragment (UniProt P05067-4 18-612, limits assumed).
T1 construct: domain: sAPPalpha; Bought protein; also called soluble APP alpha; soluble amyloid precursor protein alpha
Nature of the test: indirect ELISA, sAPPalpha coated. (In general: An ELISA detects its analyte on a solid surface through an enzyme-linked reagent.)
Method: (§1) Antibody target binding was evaluated by an enzyme-linked immunosorbent assay (ELISA). Briefly, Nunc MaxiSorp 96-well plates (Nunc) were coated for 18 h at 4° C. with 50 μL of 10 pg/mL Abeta1-42 or bovine serum albumin (BSA, Sigma) diluted in PBS. In selected assays, the full-length sAPPalpha fragment (Sigma) was additionally included by coating wells as described above, but at 4 pg/mL (0.04 μM). Plates were then washed 4-times with 300 μL of PBS containing 0.05% Tween20 (Millipore). To block non-specific binding to the plate, freshly prepared solution of PBS containing 0.05% Tween20 and 1% BSA, was added to each well (100 μL/well) and the plates were incubated for 1 h at 37° C. Primary antibodies were diluted to 100 nM in PBS containing 1% BSA and 0.05% Tween20, followed by 3-fold serial dilutions in duplicates. Solutions were added to plates at 50 μL/well and incubated for 1 h at 37° C. Subsequently, the plates were washed 4-times with 300 μL of PBS containing 0.05% Tween20. Plates were then incubated with horseradish peroxidase (HRP) conjugated goat anti-mouse secondary IgG (Abcam) for 1 h at 37° C. After final wash step (4-times with 300 μL of PBS containing 0.05% Tween20), plates were incubated with 3,3′,5,5′-tetramethylbenzidine (TMB) substrate (BD Biosciences) and reaction stopped with a Stop Solution (Sigma). Finally, optical densities (O.D.) were read at 450 nm absorption wavelength using a Tecan Infinite plate reader. Measured values are expressed as mean O.D. from a duplicate run ±1 standard deviation of the mean (S.D.).

In test [2] the target is T2, Human Abeta1-42 biotinylated at the peptide C-terminus (human, biotin at the peptide C-terminus).
T2 construct: also called biotinylated Abeta1-42
As to the kind of experiment: target capture ELISA.
Method: Briefly, a Nunc MaxiSorp 96-well plate (Nunc) was coated for 18 h at 4° C. with 50 μL of 5 pg/mL goat anti-mouse IgG, Fc-gamma fragment specific antibody (Jackson Immune Research) diluted in carbonate-bicarbonate buffer. The plate was then washed 4-times with 300 μL of PBS containing 0.05% Tween20 (Millipore). To block non-specific binding to the plate, freshly prepared solution of PBS containing 0.05% Tween20 and 1% BSA, was added to each well (100 μL/well) and the plate was incubated for 1 h at 37° C. […] Subsequently, the plate was washed 4-times with 300 μL of PBS containing 0.05% Tween20. […] After washing 4-times with 300 μL of PBS containing 0.05% Tween20, the plate was incubated for 45 min at ambient temperature with 50 μL/well of streptavidin-HRP (R&D systems) diluted 1:200 in PBS containing 1% BSA and 0.05% Tween20. The plate was again washed 4-times with 300 μL of PBS containing 0.05% Tween20 before incubating at ambient temperature for 20 or 30 min with 50 or 100 μL/well of 3,3′,5,5′-tetramethylbenzidine (TMB) enzyme substrate (BD Bioscience). Reaction was stopped with a 1.2 M HCl (Sigma) solution. Finally, optical densities (O.D.) were read at 450 nm absorption wavelength using a Tecan Infinite plate reader.

Test [3] addresses T3, Abeta1-42 (human).
T3 construct: coated on plates in the direct ELISA, in solution as analyte in the sandwich ELISA; also called human Abeta 1-42; amyloid-beta 1-42
As to the kind of experiment: indirect ELISA, Abeta1-42 coated, antibody titrated.
Method: as §1

The target of another test is T4, bovine serum albumin (bovine, UniProt P02769 25-607).
T4 construct: Negative control antigen; also called BSA
Nature of the test: indirect ELISA, plate coated with BSA, antibody titrated, anti-mouse IgG-HRP, O.D. 450 nm.

The target in test [4] is T3, Abeta1-42. As to the kind of experiment: indirect ELISA, plate coated with Abeta1-42, antibody titrated, anti-mouse IgG-HRP, O.D. 450 nm.
Method: (§2) Antibody target binding was evaluated by an enzyme-linked immunosorbent assay (ELISA). Briefly, Nunc MaxiSorp 96-well plates (Nunc) were coated for 18 h at 4° C. with 50 μL of 10 pg/mL Abeta1-42 or bovine serum albumin (BSA, Sigma) diluted in PBS. In selected assays, the full-length sAPPalpha fragment (Sigma) was additionally included by coating wells as described above, but at 4 pg/mL (0.04 μM). Plates were then washed 4-times with 300 μL of PBS containing 0.05% Tween20 (Millipore). To block non-specific binding to the plate, freshly prepared solution of PBS containing 0.05% Tween20 and 1% BSA, was added to each well (100 μL/well) and the plates were incubated for 1 h at 37° C. Primary antibodies were diluted to 100 nM in PBS containing 1% BSA and 0.05% Tween20, followed by 3-fold serial dilutions in duplicates. Solutions were added to plates at 50 μL/well and incubated for 1 h at 37° C. Subsequently, the plates were washed 4-times with 300 μL of PBS containing 0.05% Tween20. Plates were then incubated with horseradish peroxidase (HRP) conjugated goat anti-mouse secondary IgG (Abcam) for 1 h at 37° C. […] Finally, optical densities (O.D.) were read at 450 nm absorption wavelength using a Tecan Infinite plate reader. Measured values are expressed as mean O.D. from a duplicate run ±1 standard deviation of the mean (S.D.).

T1 sequence (P05067 other isoform, or with tags, fused parts or gaps limits assumed): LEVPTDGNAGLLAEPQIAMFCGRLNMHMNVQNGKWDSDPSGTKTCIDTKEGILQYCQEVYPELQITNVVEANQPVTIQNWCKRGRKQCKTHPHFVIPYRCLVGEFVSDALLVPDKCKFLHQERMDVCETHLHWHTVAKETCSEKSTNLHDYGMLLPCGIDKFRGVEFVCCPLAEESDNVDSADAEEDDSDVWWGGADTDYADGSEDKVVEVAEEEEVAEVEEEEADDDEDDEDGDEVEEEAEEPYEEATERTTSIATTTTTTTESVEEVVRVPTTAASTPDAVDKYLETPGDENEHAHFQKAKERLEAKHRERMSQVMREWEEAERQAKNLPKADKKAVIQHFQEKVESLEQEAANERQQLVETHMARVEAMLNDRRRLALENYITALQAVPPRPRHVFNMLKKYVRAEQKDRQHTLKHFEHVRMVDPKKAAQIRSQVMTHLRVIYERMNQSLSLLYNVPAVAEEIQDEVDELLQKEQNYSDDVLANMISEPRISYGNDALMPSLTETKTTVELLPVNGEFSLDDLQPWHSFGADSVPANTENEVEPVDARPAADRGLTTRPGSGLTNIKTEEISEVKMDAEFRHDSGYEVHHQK
Method for bovine serum albumin: as §2

B1: ACI-31-30C11-Ab1 (murine IgG2a with a kappa light chain) (antibody, V domains shown)
VH: QVQLQQSGPELVKPGASVKISCKASGYAFSSSWLNWVKQRPGEGLEWIGRIYPGDGDINYNGKFKGKATLTADKSSSTAYMQLSSLTSDDSAVYFCTKRGRYALDYWGQGTSVTVSS
VL: DIVLTQSPASLAVSLGQRATISCRASKSVDNYGKSFMHWFQQKPGQPPKLLIYRASNLESGIPARFSGSGSRTDFTLTINPVEADDVATYYCQQSNEDPYTFGGGTKLEMKR
notes: also called AC-31-30C11-Ab1
Turning to B1, the binding result was “no binding” in test [1], “binds” in test [2] and “no binding (tested: 100 nM)” with bovine serum albumin. The equilibrium dissociation constant (Kd) in the test with Abeta1-42 [3] worked out at 196 pM. In the test with Abeta1-42 [4], the concentration giving a half-maximal response (EC50 (read off the curve)) is ~200 pM.

The Kd is the equilibrium constant for the complex coming apart. Higher therefore signals weaker binding. One may read the EC50 (read off the curve) as the concentration giving half of the maximal effect. A low value points to a more potent agent.

The values are drawn from patent publication US20230034474A1 (AC IMMUNE, published 2023).
